B1: Seq ID No. 11 (peptide)
peptide: HXGTFTSDVSSYLEGQAAKEFIAWLVKXR
modifications: Xaa1 at position 2 is furan aminoacid (5-aminomethyl-furan-2 carboxylic acid); Xaa2 at position 28 is dialkylated aminoacid (alpha-aminoisobutyric acid); C-terminal amide (Arg-NH2)
B2: Seq ID No. 07 (peptide)
peptide: H[X2]GTFTSDVSSYLEGQAAKEFIAWLVKGR-NH2
modifications: N-terminus assumed
SMILES: CC[C@H](C)[C@H](NC(=O)[C@H](Cc1ccccc1)NC(=O)[C@H](CCC(=O)O)NC(=O)[C@H](CCCCN)NC(=O)[C@H](C)NC(=O)[C@H](C)NC(=O)[C@H](CCC(N)=O)NC(=O)CNC(=O)[C@H](CCC(=O)O)NC(=O)[C@H](CC(C)C)NC(=O)[C@H](Cc1ccc(O)cc1)NC(=O)[C@H](CO)NC(=O)[C@H](CO)NC(=O)[C@@H](NC(=O)[C@H](CC(=O)O)NC(=O)[C@H](CO)NC(=O)[C@@H](NC(=O)[C@H](Cc1ccccc1)NC(=O)[C@@H](NC(=O)CNC(=O)[C@H]1O[C@H](OC)[C@H](NC(=O)[C@@H](N)Cc2c[nH]cn2)[C@@H](O)[C@@H]1O)[C@@H](C)O)[C@@H](C)O)C(C)C)C(=O)N[C@@H](C)C(=O)N[C@@H](Cc1c[nH]c2ccccc12)C(=O)N[C@@H](CC(C)C)C(=O)N[C@H](C(=O)N[C@@H](CCCCN)C(=O)NCC(=O)N[C@@H](CCCNC(=N)N)C(N)=O)C(C)C
B3: Seq ID No. 05 (peptide)
peptide: HGEGTFTSDXSSYLEGQAAKEFIXWLVKGR
modifications: Xaa1 at position 10 and Xaa2 at position 24 are dialkylated aminoacid (alpha-aminoisobutyric acid); C-terminal amide (Arg-NH2)
B4: Seq ID No. 09 (peptide)
peptide: HXEGTFTSDXSSYLEGQAAKEFIXWLVKGRG
modifications: Xaa1 at position 2 is furan aminoacid (5-aminomethyl-furan-2 carboxylic acid); Xaa2 at position 10 and Xaa3 at position 24 are dialkylated aminoacid (alpha-aminoisobutyric acid); C-terminal amide (Gly-NH2)
B5: Seq ID No. 10 (peptide)
peptide: H[2Furoyl(5-aminomethyl)]GTFTSD[Aib]SSYLEGQAAKEFI[Aib]WLVKGRG-NH2
modifications: N-terminus assumed
SMILES: CC[C@H](C)[C@H](NC(=O)[C@H](Cc1ccccc1)NC(=O)[C@H](CCC(=O)O)NC(=O)[C@H](CCCCN)NC(=O)[C@H](C)NC(=O)[C@H](C)NC(=O)[C@H](CCC(N)=O)NC(=O)CNC(=O)[C@H](CCC(=O)O)NC(=O)[C@H](CC(C)C)NC(=O)[C@H](Cc1ccc(O)cc1)NC(=O)[C@H](CO)NC(=O)[C@H](CO)NC(=O)C(C)(C)NC(=O)[C@H](CC(=O)O)NC(=O)[C@H](CO)NC(=O)[C@@H](NC(=O)[C@H](Cc1ccccc1)NC(=O)[C@@H](NC(=O)CNC(=O)c1ccc(CNC(=O)[C@@H](N)Cc2c[nH]cn2)o1)[C@@H](C)O)[C@@H](C)O)C(=O)NC(C)(C)C(=O)N[C@@H](Cc1c[nH]c2ccccc12)C(=O)N[C@@H](CC(C)C)C(=O)N[C@H](C(=O)N[C@@H](CCCCN)C(=O)NCC(=O)N[C@@H](CCCNC(=N)N)C(=O)NCC(N)=O)C(C)C
B6: Seq ID No. 02 (peptide)
peptide: H[2Furoyl(5-aminomethyl)]GTFTSDVSSYLEGQAAKEFIAWLVKGRG-NH2
modifications: N-terminus assumed
SMILES: CC[C@H](C)[C@H](NC(=O)[C@H](Cc1ccccc1)NC(=O)[C@H](CCC(=O)O)NC(=O)[C@H](CCCCN)NC(=O)[C@H](C)NC(=O)[C@H](C)NC(=O)[C@H](CCC(N)=O)NC(=O)CNC(=O)[C@H](CCC(=O)O)NC(=O)[C@H](CC(C)C)NC(=O)[C@H](Cc1ccc(O)cc1)NC(=O)[C@H](CO)NC(=O)[C@H](CO)NC(=O)[C@@H](NC(=O)[C@H](CC(=O)O)NC(=O)[C@H](CO)NC(=O)[C@@H](NC(=O)[C@H](Cc1ccccc1)NC(=O)[C@@H](NC(=O)CNC(=O)c1ccc(CNC(=O)[C@@H](N)Cc2c[nH]cn2)o1)[C@@H](C)O)[C@@H](C)O)C(C)C)C(=O)N[C@@H](C)C(=O)N[C@@H](Cc1c[nH]c2ccccc12)C(=O)N[C@@H](CC(C)C)C(=O)N[C@H](C(=O)N[C@@H](CCCCN)C(=O)NCC(=O)N[C@@H](CCCNC(=N)N)C(=O)NCC(N)=O)C(C)C
B7: Seq ID No. 04 (peptide)
peptide: H[2Furoyl(5-aminomethyl)]EGTFTSD[Aib]SSYLEGQAAKEFI[Aib]WLVKGR-NH2
modifications: N-terminus assumed
SMILES: CC[C@H](C)[C@H](NC(=O)[C@H](Cc1ccccc1)NC(=O)[C@H](CCC(=O)O)NC(=O)[C@H](CCCCN)NC(=O)[C@H](C)NC(=O)[C@H](C)NC(=O)[C@H](CCC(N)=O)NC(=O)CNC(=O)[C@H](CCC(=O)O)NC(=O)[C@H](CC(C)C)NC(=O)[C@H](Cc1ccc(O)cc1)NC(=O)[C@H](CO)NC(=O)[C@H](CO)NC(=O)C(C)(C)NC(=O)[C@H](CC(=O)O)NC(=O)[C@H](CO)NC(=O)[C@@H](NC(=O)[C@H](Cc1ccccc1)NC(=O)[C@@H](NC(=O)CNC(=O)[C@H](CCC(=O)O)NC(=O)c1ccc(CNC(=O)[C@@H](N)Cc2c[nH]cn2)o1)[C@@H](C)O)[C@@H](C)O)C(=O)NC(C)(C)C(=O)N[C@@H](Cc1c[nH]c2ccccc12)C(=O)N[C@@H](CC(C)C)C(=O)N[C@H](C(=O)N[C@@H](CCCCN)C(=O)NCC(=O)N[C@@H](CCCNC(=N)N)C(N)=O)C(C)C
B8: Seq ID No. 08 (peptide)
peptide: H[2Furoyl(5-aminomethyl)]GTFTSDVSSYLEGQAAKEFIAWLVKGR-NH2
modifications: N-terminus assumed
SMILES: CC[C@H](C)[C@H](NC(=O)[C@H](Cc1ccccc1)NC(=O)[C@H](CCC(=O)O)NC(=O)[C@H](CCCCN)NC(=O)[C@H](C)NC(=O)[C@H](C)NC(=O)[C@H](CCC(N)=O)NC(=O)CNC(=O)[C@H](CCC(=O)O)NC(=O)[C@H](CC(C)C)NC(=O)[C@H](Cc1ccc(O)cc1)NC(=O)[C@H](CO)NC(=O)[C@H](CO)NC(=O)[C@@H](NC(=O)[C@H](CC(=O)O)NC(=O)[C@H](CO)NC(=O)[C@@H](NC(=O)[C@H](Cc1ccccc1)NC(=O)[C@@H](NC(=O)CNC(=O)c1ccc(CNC(=O)[C@@H](N)Cc2c[nH]cn2)o1)[C@@H](C)O)[C@@H](C)O)C(C)C)C(=O)N[C@@H](C)C(=O)N[C@@H](Cc1c[nH]c2ccccc12)C(=O)N[C@@H](CC(C)C)C(=O)N[C@H](C(=O)N[C@@H](CCCCN)C(=O)NCC(=O)N[C@@H](CCCNC(=N)N)C(N)=O)C(C)C

Numbered stars: 1 amine (or outer) side, 2 acyl side, 3 side chain; on linkers, the order of the positions; unused ones are H or OH. Square brackets hold non-standard residues; d marks the D form. Ends that are not written are not given here. X2 = 2‑amino‑1‑O‑methyl‑2‑deoxy‑alpha‑D‑glucopyranuronic acid, CO[C@H]1O[C@H](C(=O)[*:2])[C@@H](O)[C@H](O)[C@H]1N[*:1]; 2Furoyl(5-aminomethyl) = O=C(c1ccc(CN[*:1])o1)[*:2]; Aib = CC(C)(N)C(=O)O

The test has as its target GLP-1 receptor. The test can be described thus: cell-based or functional assay.
Regarding B1, the “EC50, Receptor Functional assay (intracellular cAMP in CHO/GLP-1R cells)” value (from here on “EC50 … (intracellular cAMP in CHO/GLP-1R cells)”) is 0.102 nM. With H[2Furoyl(5-aminomethyl)]EGTFTSDVSSYLEGQAAKEFIAWLVKGR-NH2 [Seq ID No. 03], the “EC50 … (intracellular cAMP in CHO/GLP-1R cells)” value was 0.061 nM. Then B2, with 0.056 nM. Under B3 stands 0.083 nM. On to H[2Furoyl(5-aminomethyl)]EGTFTSDVSSYLEGQAAKEFIAWLVKGRG-NH2 [Seq ID No. 01], for which the “EC50 … (intracellular cAMP in CHO/GLP-1R cells)” value was 0.103 nM. Under B4 stands 1 nM; under H[X2]EGTFTSDVSSYLEGQAAKEFIAWLVKGR-NH2 [Seq ID No. 06], 0.838 nM.

Regarding B5, the “EC50 … (intracellular cAMP in CHO/GLP-1R cells)” value worked out at 3.38 nM. Then B6, with 0.043 nM; and B7, with 0.072 nM; and H[2Furoyl(5-aminomethyl)]GTFTSDVLSYQEGQAAKLFIEWLVKGR-NH2 [Seq ID No. 12], with 2.24 nM.

For the molecule B8, the “EC50 … (intracellular cAMP in CHO/GLP-1R cells)” value turned out to be 0.601 nM.
